Assay [1] deals with cell-surface HLA-A2 on Hmy2.C1R-A2 target cells with HTLV-1 TAX 11-19 peptide (human; HTLV-1), A*02:0. The assay is described as follows: cell-based or functional assay.
Assay [2] has as its target cell-surface HLA-A3 on Hmy2.C1R-A3 transfectants with pn2a.A3 peptide (human).
In assay [3] the target is cell-surface HLA-A1 on Hmy2.C1R-A1 transfectants with ornithine decarboxylase 309-317 (OD 309) peptide (human). As to the kind of experiment: competition with 2.5 µM myc-hβ2m on Hmy2.C1R-A1 cells with OD 309 peptide, 9E10 anti-myc, flow cytometry.
The target of assay [4] is cell-surface HLA-A3 on Hmy2.C1R-A3 transfectants with pn2a.A3 peptide (human). The source holds these as a separate data set.
Assay [5] concerns the target cell-surface HLA-A2 on Hmy2.C1R-A2 transfectants with HIV gag 77-85 peptide (human; HIV), A*02:0.
Assay [6] deals with cell-surface HLA-A1 on Hmy2.C1R-A1 transfectants with ornithine decarboxylase 309-317 (OD 309) peptide (human). As to the kind of experiment: HLA stabilization assay, acid-stripped Hmy2.C1R-A1 cells with OD 309 peptide and BB7.5 mAb, flow cytometry.

“hβ2m S55V (human β2-microglobulin with valine at position 55) (from UniProt P61769 21-119)”: the enhancement of target cell lysis, fold more effective at a molar level than wild-type hβ2m in assay [1] was 4 fold. For the same substance, the fold better stabilization than wild-type hβ2m at a molar level in assay [2] was determined as 3 fold; in assay [6], 2 fold. Moreover, the fold better inhibition of myc-hβ2m binding than wild-type hβ2m at a molar level in assay [3], in assay [4] and in assay [5] was 2.5 fold each time.

Take “wild-type human β2-microglobulin (hβ2m), recombinant (from UniProt P61769 21-119)”: in assay [1], the hβ2m concentration giving maximal lysis by the TAX-specific CTL clone amounted to 8 µM.

The values above are taken from patent EP1086224B1.
